Substrate in data set [1]: Cc1cn([C@H]2C[C@H](O)[C@@H](COP(=O)(O)O)O2)c(=O)[nH]c1=O
The data set can be described thus: KM determination of thymidylate kinase substrates (coupled PK/LDH assay, Lineweaver-Burk plot). The class given is biochemical, Saccharomyces cerevisiae. Conditions: other: substrate of thymidylate kinase from yeast; FIG. 5. As for the experimental part:
(§1) FIG. 4: Graphical illustration of the kinetics of conversion of thymidylate and ATP by various concentration of thymidylate kinase in the assay. In an assay volume of 50 μl, 500 μM thymidylate, 500 μM ATP, 300 μM NADH, 400 μM PEP (phosphoenol pyruvate), 0.1 U pyruvate kinase and 0.1 U lactate dehydrogenase were employed. The conversion occurred on the basis of a decrease in absorption at 340 nm due to the reaction of the released ADP with PEP and NADH to form lactate and NAD.
(§2) FIG. 5: Lineweaver-Burk plot for determination of the KM value of dTMP (A) and ATP (B). The measured values are illustrated according to Lineweaver and Burk, i.e. 1/Vo=1/Vmax+1/S×(KM/Vmax), where Vo is the original reaction speed, Vmax is the maximum attainable reaction speed and S is the substrate concentration. Vmax and KM can then be calculated as the intercepts on the vertical axis and horizontal axis, 1/V and 1/KM. The KM value for dTMP is 0.17 mM […], the KM value for ATP is 0.16 mM […].
(§3) A preferred method (see Example 3) makes use of the fact that an adenosine diphosphate molecule (ADP) is released during the thymidylate kinase reaction. The activity, or the increase or decrease in activity, of the polypeptide according to the invention can thus be determined via detection of the resulting ADP. […]

Substrate in data set [2]: Nc1ncnc2c1ncn2[C@@H]1O[C@H](COP(=O)(O)OP(=O)(O)OP(=O)(O)O)[C@@H](O)[C@H]1O
Described as above. The class given is biochemical, Saccharomyces cerevisiae. Conditions: other: substrate of thymidylate kinase from yeast; FIG. 5. As to the method:
as §1, §2, §3

The text below walks through data of patent publication US20060171977A1, “Methods for the identification of fungicidally active compounds based on thymidylate kinase” (priority 2004, published 2006).

B1: thymidylate kinase from yeast (Saccharomyces cerevisiae S288C) (protein)
chain: MMGRGKLILIEGLDRTGKTTQCNILYKKLQPNCKLLKFPERSTRIGGLINEYLTDDSFQLSDQAIHLLFSANRWEIVDKIKKDLLEGKNIVMDRYVYSGVAYSAAKGTNGMDLDWCLQPDVGLLKPDLTLFLSTQDVDNNAEKSGFGDERYETVKFQEKVKQTFMKLLDKEIRKGDESITIVDVTNKGIQEVEALIWQIVEPVLSTHIDHDKFSFF
notes: His6 (with pDest17 vector linker) (N); made in house; host or cells: E. coli BL21(DE3)pLysS
By Km is commonly meant the substrate concentration at which the rate is half of its maximum. Consider B1, for which the Michaelis constant (Km) in data set [1] came out at 170 µM; in data set [2], 160 µM.
